According to patent US20230050846A1 (LIFESEARCH, published 2023):

Target: Human F1Fo-ATPase purified from HepG2 cells (human)
Assay: cell-based or functional assay

B1: IF1-1-60 (peptide)
peptide: GSDQSENVDRGAGSIREAGGAFGKREQAEEERYFRAQSREQLAALKKHHEEEIVHHKKEI
F1-ATPase activity (NADH-coupled assay, purified F1Fo-ATPase, 1 µM peptide), inhibition as compared to control: 94%

RGAGSIREAGGAFGKREQAEEERYFRAQSREQLAALKKHHEEEIVHH [IF1-10-56]
F1-ATPase activity (NADH-coupled assay, purified F1Fo-ATPase, 1 µM peptide), inhibition as compared to control: 88%

RGAGSIREAGGAFGKREQAEEERYFRAQSREQLAALKK [IF1-10-47]
F1-ATPase activity (NADH-coupled assay, purified F1Fo-ATPase, 1 µM peptide), inhibition as compared to control: 75%
